Data as given in paper doi:10.1101/2021.07.23.453482 (bioRxiv, 2021).

B1: BT3057^4S-Gal/GalNAc (enzyme, Bacteroides thetaiotaomicron, UniProt Q8A397 1-508, looked up)
chain: QERPNIIVFLVDDMGLMDTSVPFIADESGQPVRHPLNDWYHTPNMERLAKQGICFSTFYAQSVSSPSRASIMTGQNATRHGVTNWINAESNNRNPFGPPQWNWKGLRKDMPTMPRVLQQAGYKTIHVGKAHFGCMGSEGENPLNIGFDVNIAGSGIGHPGSYYGEWGYGHIKGQKIRAVPDLEKYHGTDTFLSEALTIEANREITKAVEEKRPFYLNMAHYAVHSPFQADKRFLSRYTDPDKNEQARAFATLIEGMDKSLGDIMDQLEKLGIAENTLILFLGDNGGDAPLGDERGYGSSAPLRGKKGTEFEGGMRVPFIAAWAKPEKKSKVQKNLPIEVGSMQTQLGTIMDIYPTVLSVAGCEVPQNYVIDGFDLKKQLSGKVDKKRPESFLMHFPHAHRGSYFTTYRMGDWKLIYYYLPETPKQPKALLYNLKDDPEERNELSAAHPDQCREMIREMSARLEKEGALYPVDKQGNELKPFVYF
B2: BT3796^4S-Gal/GalNAc (enzyme)
chain: QTQKSAQTQRVDKRPNIILFMVDDMGWQDTSLPFWTQKTDYNKLYETPNMERLAKQGMMFTQAYASSISSPTRCSLITGTNAARHRVTNWTLQKNTKTDRKDKVLDVPDWNYNGVSQVPGTNNTFVGTSFVQLLKDSGYHTIHCGKAHFGAIDTPGEDPHHWGFEVNIAGHAAGGLASYLGEENYGHNKDGKPISLMAVPGLEKYWGTETFVTEALTLEAIKALNKAKKYNQPFYLYMSQYAIHVPLDKDKRFYDKYKKKGMTDHEAAYATLIEGMDKSLGDLMDWLEKSGEADNTIIIFMSDNGGLAAESYWRDGKLHTQNHPLNSGKGSTYEGGIREPMIVSWPGVVAPGSKCNDYLLIEDFYPTILEMAGIKKYKTVQPIDGISFMPLLKQTRNPSKGRSLFWNMPNNWGNDGPGINFNCAVRKGDWKLIYYYGTGKKELFNIPDDIGESNDLSAQHPDIVKRLSKELGTYLRKVDAQRPTVKATGKPCPWPDEIK

Target: the molecule itself
Assay: SEC-MALS

Protein | stoichiometry N
B1 | 2
B2 | 2
